In patent US7678386B2, “Liposomes coated with selected antibodies that bind to aminophospholipids” (Board of Regents the University of Texas, priority 2002, dated 2010):
Where “and” joins values, the source holds several entries; their conditions need not be identical. Identical values can stand only once.

Test: Monoclonal single chain antibody ELISA on PS plate
Type: binding
Conditions: supernatants of individual subclones, 10% human serum
Experimental: Individual HB2151 colonies from the plates (after 4 rounds of selection) were inoculated into 500 μl 2×TY containing 100 μg/ml ampicillin and 1% glucose in 96-well plates and grown with shaking (300 rpm.) overnight at 37° C. 5 μl from this plate were transferred to a second 96-well plate containing 500 μl 2×TY containing 100 μg/ml ampicillin per well and grown shaking at 37° C. for 3 hr (OD600=0.9).
To each well was added 50 μl 2×TY containing 100 μg/ml ampicillin, 10 mM IPTG (final concentration is 1 mM), which was grown with shaking overnight at 30° C. It was centrifuged at 1,800 g for 10 min and 100 μl of the supernatant used in the following ELISA.
96 well plates (DYNEX IMMULON®1B) were coated with PS dissolved in ethanol at a concentration of 10 μg/ml (P6641 10 mg/ml solvent was Chloroform:MeOH 95:5). 10 μg/ml PC was coated in the same way. These plates were evaporated at 4° C. in the cold room. 250 μl 2.5% casein was added to each well, and the plates were covered and blocked at 37° C. for 1 hour.
Wells were rinsed 3 times with PBS, 100 μl/well 10% human serum and 100 μl/well supernatant containing soluble scFv was added and incubated for 60 min at 37° C. The solution was discarded and washed 6 times with PBS. […] 100 μl 0.18 M H2SO4 was added to stop the reaction and read at O.D. 490.

B1: 3A2: scFv anti-PS clone; sequences SEQ ID NO:5 and SEQ ID NO:6 (protein)
scFv: AQPAMAEVQLVESGGGVVQPGRSLRLSCAASGFTFSSYGMHWVRQAPGKGLEWVAVISYDGSNKYYADSVKGRFTISRDNSKNTLYLQMNSLRAEDTAVYYCARLHAQTWGQGTLVTVSSGGGGSGGGGSGGSALQSVLTQPPSVSAAPGQKVTISCSGSSSDMGNYAVSWYQQLPGTAPKLLIYENNKRPSGIPDRFSGSKSGTSATLGITGLWPEDEADYYCLAWDTSPRNVFGGGTKLTVLGAAAHHHHHHGAAEQKL
ELISA on PS Plate (O.D. 490): 0.126 and 0.118 (2×) and 0.131 (2×) and 0.125 and 0.115 and 0.127 and 0.150 and 0.117 and 0.112 and 0.121 and 0.123 and 0.114 and 0.116 and 0.132
